Data: PMC9943653

Columns and labels:
[1] = test system: Gal4 (1-147); assay: ensemble FRET; conditions: EMSA: 10 mM Tris-HCl pH 8, 130 mM NaCl, 10% glycerol, 0.0075% Tween-20, 0.5 nM DNA or nucleosome, smFRET: same Tris/NaCl/glycerol with 0.5% Tween-20, 0.1 mg/ml …
[2] = test system: Gal4 (1-147); assay: single-molecule FRET; conditions: EMSA: 10 mM Tris-HCl pH 8, 130 mM NaCl, 10% glycerol, 0.0075% Tween-20, 0.5 nM DNA or nucleosome, smFRET: same Tris/NaCl/glycerol with 0.5% Tween-20, 0.1 mg/ml …

P33 nucleosome, full Gal4 site showed a K half [1] of 240 nM.
In the case of P31 nucleosome, 222 bp, the Kd ([2]; kon eff 0.0008 nM-1 s-1, koff 0.83 s-1) is reported as 980 nM.
In the case of P36 nucleosome, full Gal4 site, the K half [1] is reported as 290 nM.
With P26 nucleosome, full Gal4 site (D1) the K half [1] was 4.3 nM.
P26 nucleosome D17 gave a K half ([1]; amino-C6-dT at nt 17 of strand 1) of 9 nM.
P36 nucleosome, 222 bp was tested, and the Kd ([2]; kon eff 0.004 nM-1 s-1, koff 1.03 s-1) was 260 nM.
P31 nucleosome, full Gal4 site showed a K half [1] of 500 nM.
In the case of “P28 nucleosome, full Gal4 site (called P29 once in text)”, the K half ([1]; text prints P29) is reported as 1.7 nM.
In the case of P26 nucleosome, 222 bp, the Kd ([2]; kon eff 0.11 nM-1 s-1, koff 0.66 s-1) is reported as 6.1 nM.
